This is an account of results in patent US20200199647A1 (published 2020).

Experiment [1] deals with T1, PP1c (human PP1cα amino acids 7-330, N-terminal Thio6/His6 tag) (human, UniProt P62136 7-330). Briefly: thermophoresis.
For experiment [2], the target named is T1, PP1c (human PP1cα amino acids 7-330, …). As to the kind of experiment: thermophoresis. This is another data set of the same source.

Read-outs that look alike come from different tables or passages of the source.

T1 sequence (P62136 other isoform, or with tags, fused parts or gaps): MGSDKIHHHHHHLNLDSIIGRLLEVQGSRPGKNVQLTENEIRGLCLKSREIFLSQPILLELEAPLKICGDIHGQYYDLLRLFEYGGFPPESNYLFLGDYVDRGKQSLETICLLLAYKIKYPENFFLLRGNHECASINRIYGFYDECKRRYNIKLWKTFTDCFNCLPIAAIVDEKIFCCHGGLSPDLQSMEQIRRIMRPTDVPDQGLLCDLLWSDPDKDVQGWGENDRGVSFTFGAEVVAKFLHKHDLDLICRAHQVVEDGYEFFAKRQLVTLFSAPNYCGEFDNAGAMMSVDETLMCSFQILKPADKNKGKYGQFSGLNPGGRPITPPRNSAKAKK

B1: R15B^C (human PPP1R15B amino acids 636-698, N-terminal MBP-tag, C-terminal His6-tag) (other)
chain: VKRKKVTFLEEVTEYYISGDEDRKGPWEEFARDGCRFQKRIQETEDAIGYCLTFEHRERMFNRHHHHHH
By Kd is commonly meant a measure of binding affinity in units of concentration. Read a high Kd as a looser complex. With B1, binding in experiment [1] was put at a Kd of 960 nM.

B2: R15B (human PPP1R15B amino acids 340-698, N-terminal MBP-tag, C-terminal His6-tag) (other)
chain: RDNPTQFVPAAGDIPGNTQESTEEKIELLTTEVPLALEEESPSEGCPSSEIPMEKEPGEGRISVVDYSYLEGDLPISARPACSNKLIDYILGGASSDLETSSDPEGEDWDEEAEDDGFDSDSSLSDSDLEQDPEGLHLWNSFCSVDPYNPQNFTATIQTAARIVPEEPSDSEKDLSGKSDLENSSQSGSLPETPEHSSGEEDDWESSADEAESLKLWNSFCNSDDPYNPLNFKAPFQTSGENEKGCRDSKTPSESIVAISECHTLLSCKVQLLGSQESECPDSVQRDVLSGGRHTHVKRKKVTFLEEVTEYYISGDEDRKGPWEEFARDGCRFQKRIQETEDAIGYCLTFEHRERMFNRHHHHHH
With B2, in experiment [2], the Kd amounted to 900 nM.
